According to patent publication US20140377280A1 (ROCKEFELLER UNIVERSITY, published 2014):

Molecular target: T1, α2,6-sialylated recombinant human IgG1 Fc (sFc), prepared by papain cleavage of full-length IDEC-114 antibody … (human, UniProt P0DOX5 227-449 = IgG part, limits assumed, N-linked glycan at Asn297 with terminal α2,6-linked sialic acid (in vitro galactosylation and sialylation))
T1 construct: also called α2,6-sFc; α2,6 sFc
Assay: SPR steady-state affinity, immobilized DC-SIGN ECD
Description: To determine the interaction between various recombinant Fc preparations to soluble hDC-SIGN or hFcγRs, steady-state affinity measurements were recorded on a Biacore T100 sensor. Receptors, diluted to 20-50 μg/mL in NaOAc pH 5.0, were immobilized on CMS chips at high density (2000 RU) by standard amine coupling. For hDC-SIGN interactions, injections were performed at a flow rate of 20 μL/min with commercially available HBS-P+ buffer adjusted to pH 9.0 and supplemented with 2 mM CaCl₂ and 500 mM NaCl. For hFcγRs interactions, injections were performed at a flow rate of 20 μL/min with commercially available HBS-EP+ buffer. Surfaces were regenerated with a short pulse of 50 mM NaOH. Kd values were calculated after subtraction of background binding to a control flow cell using Biacore Evaluation software.

Kd: ~1.3 µM
B1: soluble human DC-SIGN extracellular domain with N-terminal strep tag (receptor, UniProt Q9NNX6 59-404, looked up)
chain: QVSKVPSSISQEQSRQDAIYQNLTQLKAAVGELSEKSKLQEIYQELTQLKAAVGELPEKSKLQEIYQELTRLKAAVGELPEKSKLQEIYQELTWLKAAVGELPEKSKMQEIYQELTRLKAAVGELPEKSKQQEIYQELTRLKAAVGELPEKSKQQEIYQELTRLKAAVGELPEKSKQQEIYQELTQLKAAVERLCHPCPWEWTFFQGNCYFMSNSQRNWHDSITACKEVGAQLVVIKSAEEQNFLQLQSSRSNRFTWMGLSDLNQEGTWQWVDGSPLLPSFKQYWNRGEPNNVGEEDCAEFSGNGWNDDKCNLAKFWICKKSAASCSRDEEQFLSPAPATPNPPPA
notes: extracellular domain; also called DC-SIGN ECD; soluble hDC-SIGN; not shown: N-terminal strep tag
